From the Human Domainome abundance scans (Beltran et al. 2025)

B1: Ankyrin-2, residues 3571 to 3650; numbered along this chain, Q01484 (parent)
chain: ERLAYIADHLGFSWTELARELDFTEEQIHQIRIENPNSLQDQSHALLKYWLERDGKHATDTNLVECLTKINRMDIVHLME

Variants of: B1
Test: abundance fitness (aPCA) (normalised: wild type 0, dead -1); higher = more abundant; growth selection in yeast, the domain comes from the species named
Conditions: Homo sapiens

Abundance fitness of substitutions, site by site:
H29: L -0.006 | M -0.133 | N -0.108 | P -0.961 | Q -0.025 | R -0.111 | S -0.041 | T -0.005 | V 0.035 | W -0.137 | Y -0.294
Q30: A -0.082 | C -0.044 | D -0.183 | E 0.005 | F -0.023 | G -0.079 | H -0.045 | I -0.076 | K -0.112 | L -0.052 | M 0.008 | N -0.128 | P -0.825 | R 0 | S -0.081 | T -0.023 | V -0.073 | W -0.209
I31: A -0.545 | C 0.027 | D -1 | E -0.791 | F 0.023 | G -0.936 | H -0.707 | L -0.06 | M -0.177 | N -0.242 | P -1.19 | Q -0.743 | R -1.04 | S -0.772 | T -0.157 | V -0.057 | W -0.336 | Y -0.42
R32: A -0.096 | C -0.074 | D -0.073 | E 0.058 | F -0.088 | G -0.05 | H 0.034 | I -0.339 | K 0.177 | L -0.034 | M -0.065 | N -0.206 | P -0.293 | Q 0.081 | S -0.059 | T -0.127 | W -0.25 | Y -0.384
I33: A -0.034 | C -0.002 | D -0.105 | E 0.039 | F -0.019 | G -0.047 | H -0.096 | K 0.058 | L -0.087 | M 0.011 | N -0.223 | P -0.912 | Q 0.003 | R 0.011 | T -0.022 | V -0.04 | W -0.073 | Y -0.027
E34: A -0.048 | C -0.413 | D -0.129 | F -0.25 | G -0.058 | H -0.048 | I -0.042 | K -0.045 | L -0.054 | N -0.048 | P -0.678 | Q 0.085 | R 0.018 | S -0.018 | T -0.049 | V -0.021 | W -0.022 | Y -0.148
N35: A -0.066 | C -0.053 | D -0.296 | E -0.043 | F -0.091 | H -0.118 | I -0.087 | K -0.042 | L -0.128 | M -0.03 | Q 0.066 | R -0.033 | S -0.093 | T -0.071 | V -0.084 | W -0.049 | Y -0.07
P36: C -0.123 | D -0.031 | E -0.044 | F -0.08 | G -0.045 | H -0.202 | I -0.805 | K -0.125 | L -0.081 | M -0.017 | N 0.253 | Q -0.123 | R -0.076 | S -0.117 | T -0.052 | V -0.14 | W -0.074 | Y -0.221
N37: A 0.043 | C -0.064 | D -0.015 | F -0.003 | G -0.028 | H -0.021 | I -0.01 | K -0.074 | L -0.067 | M 0.099 | P -0.249 | Q -0.069 | R -0.068 | S -0.031 | T -0.093 | W -0.091 | Y -0.171
S38: D -0.038 | E -0.092 | F -0.155 | H -0.14 | I -0.396 | L -0.086 | M -0.059 | N -0.065 | P -0.832 | Q -0.103 | R -0.096 | T -0.039 | V -0.092 | W -0.358 | Y -0.474
L39: A 0.031 | C -0.017 | D -0.031 | E -0.027 | F -0.013 | G -0.108 | H -0.155 | I 0.071 | K -0.087 | M -0.042 | P -0.016 | Q -0.102 | R -0.109 | S -0.025 | T -0.134 | V -0.043 | W -0.045 | Y 0.076
Q40: A -0.104 | C -0.16 | D 0.117 | E 0.051 | G -0.146 | I -0.124 | L -0.171 | P -0.045 | R -0.07 | S -0.069 | T -0.033 | W -0.065
D41: A -0.01 | C -0.109 | E -0.077 | F -0.168 | G 0.006 | I 0.004 | K -0.034 | L -0.038 | M -0.019 | N -0.02 | P -0.243 | Q -0.024 | R -0.058 | S -0.005 | T -0.013 | V -0.065 | W -0.2 | Y -0.213
Q42: A -0.068 | C 0.007 | G -0.323 | H -0.807 | I -0.33 | P -0.768 | R -0.12 | S 0.073 | T -0.538 | V -0.204 | W -0.481
S43: A -0.281 | G -0.093 | L -0.216 | M -1.13 | P -0.32 | R -0.701 | V -0.25 | W -0.638 | Y -0.508
H44: A 0.028 | D -0.935 | G -0.099 | L -0.008 | N 0.051 | P -0.992 | Q -0.062 | R -0.226 | S 0.016 | T -0.269 | V 0.085 | W -0.152 | Y -0.21
A45: C -0.189 | D 0.097 | G -0.231 | H -0.197 | L -0.002 | R -0.002 | V 0.101
L46: A 0.143 | C 0.184 | G -0.574 | P -0.885 | T -0.127 | V -0.075 | W 0.141 | Y -0.336
L47: A -0.191 | C -0.163 | D -0.935 | E -0.673 | F 0.046 | G -0.409 | H -0.592 | I -0.061 | K -0.412 | M 0.123 | N -0.582 | P -1.28 | Q -0.626 | R -0.541 | S -0.462 | T -0.026 | V -0.034 | W -0.238 | Y -0.148
K48: A -0.063 | C 0.054 | D -0.062 | E -0.027 | F -0.053 | H -0.015 | I -0.164 | L 0.02 | M -0.2 | N 0.028 | P -0.848 | Q -0.097 | R 0.01 | S -0.094 | T 0.04 | V -0.076 | W -0.171 | Y -0.093
Y49: A 0.016 | C 0.037 | D -0.031 | F 0.02 | G 0.042 | I -0.009 | K -0.052 | L 0.017 | M 0.059 | N -0.056 | P -0.513 | R -0.129 | S -0.001 | V 0.068 | W -0.117
W50: A 0.003 | C -0.053 | D -0.598 | E -0.316 | F -0.086 | G -0.28 | H -0.132 | K 0.063 | L 0.012 | M 0.007 | N -0.041 | P -0.664 | Q 0.003 | R -0.205 | S -0.081 | T -0.05 | V -0.017 | Y -0.14
